Experimental data taken from publication PMC12078616, “A FAN1 point mutation associated with accelerated Huntington’s disease progression alters its PCNA-mediated assembly on DNA”.

Legend:
FAN1 WT [1] = target: T1, FAN1 WT (human, UniProt Q9Y2M0 1-1017); test: SPR; no PCNA; MST: 25 mM HEPES pH 7.5, 125 mM KCl, 10 mM CaCl2, 5% glycerol, 1 mM TCEP, 0.005% Tween-20, 0.1% BSA, 10 nM Cy5-DNA, 25 °C; SPR buffer not in the material; details: protein: recombinant; tags: His tag removed by PreScission; label: 5'-biotin (SPR); blunt; one unpaired nt in strand 2
FAN1 WT;PCNA D232A = FAN1 WT;PCNA D232A (human;human, UniProt Q9Y2M0;P12004 1-1017;1-261, |D232A); test: SPR; FAN1 titrated, 10 µM PCNA D232A; MST: 25 mM HEPES pH 7.5, 125 mM KCl, 10 mM CaCl2, 5% glycerol, 1 mM TCEP, 0.005% Tween-20, 0.1% BSA, 10 nM Cy5-DNA, 25 °C; SPR buffer not in the material; details: protein: recombinant;recombinant; tags: His tag removed by PreScission;His tag removed by PreScission; copies: 1;3; label: 5'-biotin (SPR); blunt; one unpaired nt in strand 2
PCNA D232A;trFAN1 R507H = PCNA D232A;trFAN1 R507H (human;human, UniProt P12004;Q9Y2M0 1-261;371-1017, D232A|R507H); test: SPR; PCNA titrated, 100 nM trFAN1; MST: 25 mM HEPES pH 7.5, 125 mM KCl, 10 mM CaCl2, 5% glycerol, 1 mM TCEP, 0.005% Tween-20, 0.1% BSA, 10 nM Cy5-DNA, 25 °C; SPR buffer not in the material; details: protein: recombinant;recombinant; tags: His tag removed by PreScission;His tag removed by PreScission; chain copies: 3;1; label: 5'-biotin (SPR); blunt; one unpaired nt in strand 2
PCNA WT;trFAN1 WT = PCNA WT;trFAN1 WT (human;human, UniProt P12004;Q9Y2M0 1-261;371-1017, |); test: as above; details: protein: recombinant;recombinant; tags: His tag removed by PreScission;His tag removed by PreScission; chain copies: 3;1; label: 5'-biotin (SPR); blunt; one unpaired nt in strand 2
FAN1 WT;PCNA WT = FAN1 WT;PCNA WT (human;human, UniProt Q9Y2M0;P12004 1-1017;1-261, |); test: SPR; FAN1 titrated, 10 µM PCNA WT; MST: 25 mM HEPES pH 7.5, 125 mM KCl, 10 mM CaCl2, 5% glycerol, 1 mM TCEP, 0.005% Tween-20, 0.1% BSA, 10 nM Cy5-DNA, 25 °C; SPR buffer not in the material; details: protein: recombinant;recombinant; tags: His tag removed by PreScission;His tag removed by PreScission; copies: 1;3; label: 5'-biotin (SPR); blunt; one unpaired nt in strand 2
PCNA WT;FAN1 R507H = PCNA WT;FAN1 R507H (human;human, UniProt P12004;Q9Y2M0 1-261;1-1017, |R507H); test: SPR; PCNA titrated, 100 nM FAN1; MST: 25 mM HEPES pH 7.5, 125 mM KCl, 10 mM CaCl2, 5% glycerol, 1 mM TCEP, 0.005% Tween-20, 0.1% BSA, 10 nM Cy5-DNA, 25 °C; SPR buffer not in the material; details: protein: recombinant;recombinant; tags: His tag removed by PreScission;His tag removed by PreScission; chain copies: 3;1; label: 5'-biotin (SPR); blunt; one unpaired nt in strand 2
PCNA WT;FAN1 WT [2] = target: T2, PCNA WT;FAN1 WT (human;human, UniProt P12004;Q9Y2M0 1-261;1-1017, |); test: as above; details: protein: recombinant;recombinant; tags: His tag removed by PreScission;His tag removed by PreScission; chain copies: 3;1; label: 5'-biotin (SPR); blunt; one unpaired nt in strand 2
PCNA WT;FAN1 WT [3] = target: T2, PCNA WT;FAN1 WT; test: SPR; 100 nM FAN1; Kd within 4-fold of homoduplex; koff 8.9e-3 s-1, slowest; MST: 25 mM HEPES pH 7.5, 125 mM KCl, 10 mM CaCl2, 5% glycerol, 1 mM TCEP, 0.005% Tween-20, 0.1% BSA, 10 nM Cy5-DNA, 25 °C; SPR buffer not in the material; details: protein: recombinant;recombinant; tags: His tag removed by PreScission;His tag removed by PreScission; chain copies: 3;1; label: 5'-biotin (SPR); blunt; (CAG)2 loop in strand 1
[4] = target: trFAN1 crystallization construct (human, UniProt Q9Y2M0 364-1017, R507H;K794A;del510-518); test: X-ray crystallography; 2.65 Å; MST: 25 mM HEPES pH 7.5, 125 mM KCl, 10 mM CaCl2, 5% glycerol, 1 mM TCEP, 0.005% Tween-20, 0.1% BSA, 10 nM Cy5-DNA, 25 °C; SPR buffer not in the material; details: protein: recombinant; tags: His tag removed by PreScission; double flap: 1:2 1:3; 5' flap 1 nt (pG), 3' flap T4
FAN1 WT [5] = target: T1, FAN1 WT; test: cryo-EM; 3.20 Å; EMD-19844; PDB id inconsistent in paper (Data availability says 9EO1; Supp. Table 3 and text imply 9EOA); MST: 25 mM HEPES pH 7.5, 125 mM KCl, 10 mM CaCl2, 5% glycerol, 1 mM TCEP, 0.005% Tween-20, 0.1% BSA, 10 nM Cy5-DNA, 25 °C; SPR buffer not in the material; details: protein: recombinant; tags: His tag removed by PreScission; double flap: 1:2 1:3; 5' flap and 3' poly-T flap

T2 sequence (P12004 whole entry, chain 1 of 2): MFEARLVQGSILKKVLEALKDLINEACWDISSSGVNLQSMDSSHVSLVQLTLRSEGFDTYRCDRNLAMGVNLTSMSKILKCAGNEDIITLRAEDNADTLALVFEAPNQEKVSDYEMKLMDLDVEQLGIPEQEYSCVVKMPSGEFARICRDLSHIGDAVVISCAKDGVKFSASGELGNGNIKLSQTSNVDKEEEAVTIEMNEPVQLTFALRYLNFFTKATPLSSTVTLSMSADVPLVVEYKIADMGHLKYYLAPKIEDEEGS
T2 sequence (Q9Y2M0 whole entry, chain 2 of 2): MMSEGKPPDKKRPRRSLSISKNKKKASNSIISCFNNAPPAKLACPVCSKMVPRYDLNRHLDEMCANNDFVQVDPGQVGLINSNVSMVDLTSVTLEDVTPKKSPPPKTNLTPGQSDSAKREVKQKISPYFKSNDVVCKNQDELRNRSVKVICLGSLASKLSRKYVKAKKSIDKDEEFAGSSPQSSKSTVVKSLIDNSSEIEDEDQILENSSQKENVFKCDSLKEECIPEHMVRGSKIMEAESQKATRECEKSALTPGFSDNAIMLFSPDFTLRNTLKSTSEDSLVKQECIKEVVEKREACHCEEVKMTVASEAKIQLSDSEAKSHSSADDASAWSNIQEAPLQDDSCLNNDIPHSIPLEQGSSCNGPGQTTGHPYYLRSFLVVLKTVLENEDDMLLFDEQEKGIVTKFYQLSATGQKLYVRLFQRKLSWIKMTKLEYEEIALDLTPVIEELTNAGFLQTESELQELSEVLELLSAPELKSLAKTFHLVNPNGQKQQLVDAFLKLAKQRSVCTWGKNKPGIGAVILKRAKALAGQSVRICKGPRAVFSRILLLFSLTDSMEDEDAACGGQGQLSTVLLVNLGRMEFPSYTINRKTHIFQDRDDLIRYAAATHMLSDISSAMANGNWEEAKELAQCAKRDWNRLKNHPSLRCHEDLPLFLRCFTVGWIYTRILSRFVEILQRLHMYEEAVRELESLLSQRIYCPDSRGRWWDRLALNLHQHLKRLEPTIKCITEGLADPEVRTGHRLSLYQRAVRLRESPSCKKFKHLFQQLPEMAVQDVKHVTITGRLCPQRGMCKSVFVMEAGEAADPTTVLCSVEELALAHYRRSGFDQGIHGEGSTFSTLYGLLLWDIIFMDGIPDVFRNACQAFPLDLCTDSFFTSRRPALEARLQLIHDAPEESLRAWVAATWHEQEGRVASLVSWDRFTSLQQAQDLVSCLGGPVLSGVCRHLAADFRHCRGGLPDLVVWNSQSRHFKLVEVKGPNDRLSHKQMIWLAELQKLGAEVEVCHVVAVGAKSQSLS
T1 sequence (Q9Y2M0 whole entry): as the sequence (Q9Y2M0 whole entry, chain 2 of 2) above
Chain of PCNA WT;FAN1 R507H (P12004 whole entry, chain 1 of 2): as the sequence (P12004 whole entry, chain 1 of 2) above
Chain of PCNA WT;FAN1 R507H (Q9Y2M0 whole entry R507H, chain 2 of 2): as the sequence (Q9Y2M0 whole entry, chain 2 of 2) above, with R507H counted along it
Chain of PCNA WT;trFAN1 WT (P12004 whole entry, chain 1 of 2): as the sequence (P12004 whole entry, chain 1 of 2) above
Chain of PCNA WT;trFAN1 WT (Q9Y2M0 371-1017, chain 2 of 2): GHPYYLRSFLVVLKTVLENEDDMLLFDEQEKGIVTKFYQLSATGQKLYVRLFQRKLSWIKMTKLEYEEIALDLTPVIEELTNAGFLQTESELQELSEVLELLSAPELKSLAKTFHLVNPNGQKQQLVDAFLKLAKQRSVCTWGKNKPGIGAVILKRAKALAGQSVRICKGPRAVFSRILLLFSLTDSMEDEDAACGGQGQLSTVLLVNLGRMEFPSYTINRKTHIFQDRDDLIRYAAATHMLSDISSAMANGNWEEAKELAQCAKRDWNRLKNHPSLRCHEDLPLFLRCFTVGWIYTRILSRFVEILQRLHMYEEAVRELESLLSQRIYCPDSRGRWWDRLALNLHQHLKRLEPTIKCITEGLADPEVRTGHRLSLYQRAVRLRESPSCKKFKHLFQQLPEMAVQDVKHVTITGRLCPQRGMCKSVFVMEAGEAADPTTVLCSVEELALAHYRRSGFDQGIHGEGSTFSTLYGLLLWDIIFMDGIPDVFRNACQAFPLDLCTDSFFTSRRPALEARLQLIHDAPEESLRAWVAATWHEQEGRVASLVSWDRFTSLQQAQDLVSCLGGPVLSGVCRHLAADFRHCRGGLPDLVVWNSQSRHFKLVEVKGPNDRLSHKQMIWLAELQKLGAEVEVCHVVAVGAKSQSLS
Chain of FAN1 WT;PCNA WT (Q9Y2M0 whole entry, chain 1 of 2): as the sequence (Q9Y2M0 whole entry, chain 2 of 2) above
Chain of FAN1 WT;PCNA WT (P12004 whole entry, chain 2 of 2): as the sequence (P12004 whole entry, chain 1 of 2) above
Chain of FAN1 WT;PCNA D232A (Q9Y2M0 whole entry, chain 1 of 2): as the sequence (Q9Y2M0 whole entry, chain 2 of 2) above
Chain of FAN1 WT;PCNA D232A (P12004 whole entry D232A, chain 2 of 2): as the sequence (P12004 whole entry, chain 1 of 2) above, with D232A counted along it
Chain of trFAN1 crystallization construct (Q9Y2M0 other isoform, or with tags, fused parts or gaps R507H;K794A;del510-518): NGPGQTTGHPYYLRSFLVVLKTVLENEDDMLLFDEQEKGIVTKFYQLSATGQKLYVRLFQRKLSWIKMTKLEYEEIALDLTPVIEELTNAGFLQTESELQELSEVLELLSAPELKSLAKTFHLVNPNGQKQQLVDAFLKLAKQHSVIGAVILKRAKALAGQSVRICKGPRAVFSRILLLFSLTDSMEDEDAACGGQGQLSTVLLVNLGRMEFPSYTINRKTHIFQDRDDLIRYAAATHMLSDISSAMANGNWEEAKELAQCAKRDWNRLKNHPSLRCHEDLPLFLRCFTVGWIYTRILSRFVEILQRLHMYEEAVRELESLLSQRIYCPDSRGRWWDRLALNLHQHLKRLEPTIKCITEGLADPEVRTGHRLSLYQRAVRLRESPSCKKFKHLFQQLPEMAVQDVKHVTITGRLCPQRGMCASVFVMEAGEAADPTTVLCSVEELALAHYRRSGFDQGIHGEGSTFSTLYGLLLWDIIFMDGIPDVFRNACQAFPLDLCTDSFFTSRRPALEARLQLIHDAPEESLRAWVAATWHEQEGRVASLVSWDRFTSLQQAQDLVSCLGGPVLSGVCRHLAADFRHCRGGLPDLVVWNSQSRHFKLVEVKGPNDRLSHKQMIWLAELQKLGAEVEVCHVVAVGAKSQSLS
Chain of PCNA D232A;trFAN1 R507H (P12004 whole entry D232A, chain 1 of 2): as the sequence (P12004 whole entry, chain 1 of 2) above, with D232A counted along it
Chain of PCNA D232A;trFAN1 R507H (Q9Y2M0 371-1017 R507H, chain 2 of 2): as the sequence (Q9Y2M0 371-1017, chain 2 of 2) above, with R137H counted along it

B1: 113 bp homoduplex (dsDNA)
DNA 1: CCGCTTTCTTCCCTTCCTTTGTGCACACGTTCCGAGATATCCTAGCAAGTGATCGTCTATGTAGCTCAAGAGTTCGACTTTCCCCGCTAAGCTCTACATCCGAGGCTCGCCGA
DNA 2: TCGGCGAGCCTCGGATGTAGAGCTTAGCGGGGAAAGTCGAACTCTTGAGCTACATAGTACGATCACTTGCTAGGATATCTCGGAACGTGTGCACAAAGGAAGGGAAGAAAGCGG
FAN1 WT [1]
  Kd: 7 ± 2.4 nM
FAN1 WT;PCNA D232A
  Kd: 5.4 ± 1.7 nM
PCNA D232A;trFAN1 R507H
  Kd: 14000 ± 5100 nM
PCNA WT;trFAN1 WT
  Kd: 3900 ± 1300 nM
FAN1 WT;PCNA WT
  Kd: 7.2 ± 2.4 nM
PCNA WT;FAN1 R507H
  Kd: 3000 ± 800 nM
PCNA WT;FAN1 WT [2]
  Kd: 1600 ± 900 nM

B2: 113 bp (CAG)2 extrahelical extrusion (dsDNA)
DNA 1: CCGCTTTCTTCCCTTCCTTTGTGCACACGTTCCGAGATATCCTAGCAAGTGATCGTCAGCAGCTATGTAGCTCAAGAGTTCGACTTTCCCCGCTAAGCTCTACATCCGAGGCTCGCCGA
DNA 2: TCGGCGAGCCTCGGATGTAGAGCTTAGCGGGGAAAGTCGAACTCTTGAGCTACATAGTACGATCACTTGCTAGGATATCTCGGAACGTGTGCACAAAGGAAGGGAAGAAAGCGG
PCNA WT;FAN1 WT [3]
  binding result: binds

B3: 5'pG1/3'T4 double flap DNA (crystallography) (dsDNA)
DNA 1: AACACGCCTAGACTCCTCA
DNA 2: TTTGAGGAGTCTTTTT
DNA 3: GAGGCGTG
modifications: 5'-phosphate on strand 3
[4]
  binding result: binds

B4: 5' flap DNA (cryo-EM substrate) (dsDNA)
DNA 1: CCCGTCCAGGTCTCGTCCGCGCCACTCGTGTCCAGCGTCG
DNA 2: TGCGGACGAGACCTGGACGGG
DNA 3: CGACGCTGGACACGAGTGGCTTTTTTTT
modifications: 5'-phosphate on strand 2
FAN1 WT [5]
  binding result: binds
